Assay results taken from article PMC10127613 (mBio, 2023).
Each block holds one molecule with its values, some of them ahead of it.

Tests used:
[1] = molecular target: Sinorhizobium meliloti Clr, C-terminally His6-tagged (Sinorhizobium meliloti); test: SEC; apo-Clr in solution (no cNMP, no DNA); dimer to monomers
Clr [2] = molecular target: T1, Clr (Sinorhizobium meliloti, UniProt Q92SD2); test: isothermal titration calorimetry; type: binding
T1 construct: gene SMc02175

[3] = molecular target: Sinorhizobium meliloti Clr, C-terminally His6-tagged (Sinorhizobium meliloti); test: crystal structure; Clr (0.25 or 0.44 mM) with 25 mM cAMP or cGMP, 25 mM MgCl2 and 1.25-fold excess of 19-mer/14-mer duplex CBS-DNA; sitting-drop vapor diffusion, 291 K (cAMP) or 281 K (cGMP)
Clr [4] = molecular target: T2, Clr (Sinorhizobium meliloti, UniProt Q92SD2 1-234); test: ITC; 1 mM cAMP; EMSA: 2 mM HEPES pH 7.0, 30 mM NaCl, 50 mM KCl, 850 ng salmon sperm DNA, 1 ug BSA, 20 ng Cy3-DNA, 3 ug Clr in 10 uL, 1 mM cAMP, room temperature. ITC: 20 mM HEPES, 300 mM NaCl, 20 mM MgCl2, pH 7.0, 25 C; settings: protein: recombinant; tags: C-terminal His6 (pET36b, NdeI/XhoI); chain copies: 2; two copies of each strand; duplex arms joined by palindromic 5' overhang CTAG (4 nt) of the 19-mer, 1 nt 3' overhang G; nicked
T2 sequence: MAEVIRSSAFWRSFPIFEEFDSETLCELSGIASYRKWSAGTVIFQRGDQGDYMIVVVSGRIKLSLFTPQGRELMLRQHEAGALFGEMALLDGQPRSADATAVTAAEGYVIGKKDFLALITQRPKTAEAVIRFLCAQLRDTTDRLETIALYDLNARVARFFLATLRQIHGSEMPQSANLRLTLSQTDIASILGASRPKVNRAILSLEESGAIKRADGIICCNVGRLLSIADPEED

percent in the monomeric state [1]: 86% | stoichiometry N [1]: 2
Molecule: Sinorhizobium meliloti Clr, C-terminally His6-tagged

Kd (Clr [2]): 23.8 ± 14.5 µM
Molecule: Nc1nc2c(ncn2[C@@H]2O[C@@H]3COP(=O)(O)O[C@H]3[C@H]2O)c(=O)[nH]1 [cGMP]

The remaining lines, values behind:

Molecule: Sinorhizobium meliloti Clr, C-terminally His6-tagged (natural protein)
stoichiometry N [3]: 2

B1: CBS-DNA, two identical 19-mer/14-mer duplexes joined by palindromic CTAG sticky ends (nicked 33-nt) (dsDNA)
DNA 1: CTAGGTAACATTACTCGCG
DNA 2: GCGAGTAATGTTAC
DNA 3: CTAGGTAACATTACTCGCG
DNA 4: GCGAGTAATGTTAC
Kd (Clr [4]): 6 ± 4.7 µM
